B1: TPR t1 (parent)
chain: GACCAAUCUGCCCUCAGAGCUCGAGAACAUCUUCGGAUGCAGAGGAGGCAGGCUUCGGUGGCGCGAUAGCGCCAACGUCCUCAACCUCCAAUGCAUCCCACCACAUGAUGAUGCCUGAAGAGCCUUGGUUUUUUG

Variants of: B1
Test: polymerase ribozyme fitness, log enrichment relative to wild type (log ratio); higher = more active; in vitro selection for triplet polymerase activity
Summary of the method: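 Each subunit of a heterodimeric triplet polymerase ribozyme was mutagenized into a library by PCR, transcribed, and subjected to one round of in vitro selection, run in triplicate. Libraries were annealed with a biotinylated primer, the partner subunit and triplets, incubated frozen at −7 °C, and extended constructs were gel-excised, captured on streptavidin beads and recovered by RT-PCR. Input and output libraries were sequenced on Illumina, keeping genotypes with ≥10 input reads and ≥1 read per output. Fitness is log base 2 of genotype enrichment divided by wild-type enrichment, from inverse-variance-weighted replicate averages.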

Variant	polymerase ribozyme fitness (log ratio)
GACCCAUCUGCCCUCAGAGCUCGAGAACAUCUUCGGAUGCAGAGGAGGCAGGCUUCGGUGGCCCGAUAGCGCCAACGUCCUCAACCUCCAAUGAAUCCCACCACAUGAUGAUCCCUGAAGAUCCUUGGUUUUUUG [A5C G63C C94A G113C G122U]	-4.6
GACCCAUCUGCCCUCAGAGCUCGAGAACAUCUUCGGAUGCAGAGGAGGCAGGCUUCGGUGGCGCGAUAGCACCAACGUCCUCAACCUCCAAUGCAUCCCACCACAUGAUGAUGCCUGAAGAGCCUUGGUUUAUUG [A5C G71A U132A]	-1.18
GACCCAUCUGCCCUCAGAGCUCGAGAACAUCUUCGGAUGCAGAGGAGGCAGGCUUCGGUGGCGCGAUAGCUCCAACGUCCUCAACCUCCAAUGCAUCCCACCACAUGAUGAUGCCUGAAGAGCCUUGGUUUUUUG [A5C G71U]	-0.21
GACCCACCUGCCCUCAGAGCUCGAGAACGUCUUCGGAUGCAGAGGAGGCAGGCUUCGGUGGCGCGAUAGCACCAACGUCCUCAACCUCUAAUCCAUCCCACCACAUGAUGAUGCCUGAAGAGCCUUGGUUUUUUG [A5C U7C A29G G71A C89U G93C]	-4.81
GACCCACCUGCCCUCAGAGCUCGAGAACAUCUUCGGAUGCAGAGGAGGCAGGCUUCGGUGGCUCGAUAGCGCCAACGUCCUCAACCUCCAAUGGAUCCCACCACAUGAUGAUCCCUGCAGAGCCUUGGUUUUUUG [A5C U7C G63U C94G G113C A118C]	-6.82
GACCCAGCUGCCCUCAGAGCUCGAGAACAUCUUCGGAUGCAGAGGAGGCAGGCAUCGGUGGCGCGAUAGCGCCAACGUCCUCAACCUCCAAUGCAUCCCACCACAUGAUCAUGCCUGAAGAGCCUUGGUUUUUUG [A5C U7G U54A G110C]	-4.81
GACCCAUCCGCCCUCAGAGCUCGAGAAGAUCUUCGGAUGCAGAGGAGGCAGGCUUUGGUGGCGCGAUAGCGCCAACGUCCUCAACCUCCAAUGCAUCCCACCACAUGAUGAUGCCUGAAAAGCCUUGGUUUUUUG [A5C U9C C28G C56U G120A]	-1.71
GACCCAUCUGCCCUCAGAGCUCGAGAACAUCCUCGGAUGCGGAGGAGGCAGGCUUCGGUAGCGCGAUAGCGCCAACGACCUCAACCUCCAAUGCAACCCACCACAUGAUGAUGCCUGAAGAGCCUUGGUUUUUUG [A5C U32C A41G G60A U78A U96A]	-2.78
GACCCAUCUGCCCUCAGAGCUCGAGAACAUCUUCGGAUGCAGAGGAGGCAGGCUUCGGUGGCGCGAUAGCGCCAACGCCCUCAACCUCCAAUGCAUCCCAUCACAUGAUGAUGCCUGAAGAGCCUUGGUUUUUUG [A5C U78C C101U]	-1.23
GACCCAUCUGCCCUCAGAGCUCGAGAACAUCUUCGGAUGCAGAGGAGGCAGGCUUCGGUGGCGCGAUAGCGCCAACGCCCUCAACCUCCAAUGCAUCCCACCACAUGAUGAUGCCUGAAGAGCCUUCGCUUUUUG [A5C U78C G127C U129C]	-2.19
GACCCAUCUGCCCUCAGAGCUCGAGAACAUCUUCGGAUGCAGAGGAGGCAGGCUUCGGUGGCGCGAUAGCGCCAACGUCCUCAACCGCCAAUGCAUCCCAUCACAUGAUGAUGCCUGAAGAGCCUUGGUUUUUUG [A5C U87G C101U]	-0.776
GACCGCUCUGCCCUCAGAGCUCGAGAACAUCUUCGGAUGCAGGGGAGGCAGGCUUCGGUGGCGCGAUAGCGUCAACGUCCUCAACCUCCAAUGCAUCCCACCACAUGAUGAUGCCUGAAGAGCCUUGGUUUUUUG [A5G A6C A43G C72U]	-2.46
GACCGAUCUGCCCUCAGGGCUCGAGAACAUCUUCGGAUGCAGACGAGCCAGGCUCCGGGGGCGCGAUAUCGCCAACGUCCUCAACCUCCAAUGCAUCCCACCACAUGAUGAUGCCUUAAGAGCCUUGGUUUUUUG [A5G A18G G44C G48C U55C U59G G69U G117U]	-5.43
GACCGAUCUGCCCUCAGGGCUCGAGAACAUCUUCGGAUGCAGAGGAGGCAGGCUUCGGUGGCGCGAUAGCGCCAACGUCCUCAACCUCCAAUGCAUCCCACCACAUGAUGAUGCCUUAAGAGCCAUGGUUUUUUG [A5G A18G G117U U125A]	-2.93
GACCGAUCUGCCCUCAGUGCUCGAGAAUAUCUUCGGAUGCAGAGGAGGCAGGCUUCGGUGGCGCGAUAGCGCCAACGUCCUCAACCUCCAAUGCAUCCCACCACAUGAUGAUGCCUGAAGAGCCUUGGUUUUUUG [A5G A18U C28U]	-4.63
GACCGAUCUGCCCUCAGAGCUCGAGUACAUCUUCGGAUGCAGAGGAGGCAGGCUUCGGUGGCGCGAUAGCGCCAACGUCCUCAACCUCCAAUGCAUCCCACCACAUGAUGAUGCCUGAAGAGCCUUGGUUUUUUG [A5G A26U]	-2.44
GACCGAUCUGCCCUCAGAGCUCGAGAGCAUCUUCGGAUGCAGAGCAGGCAGGCUUCGGUGGCGCGAUAGCGCCAACGUCCUCAACCUCCAAUGCAUUCCACCACAUGAUGAUGCCUGAAAAGCCUUGGUUUUUUG [A5G A27G G45C C97U G120A]	-2.95
GACCGAUCUGCCCUCAGAGCUCGAGAUCAUCUUCGGAUGCAGAGGAGGCAGGCUUCGGUGGCGCGAUAGCGCCAACGUCCUCAACCUCCAAUGCAUCCCACCACAUGAUGGUGCCUGAAGAGCCUUGGUUUUUUG [A5G A27U A111G]	-3.24
GACCGAUCUGCCCUCAGAGCUCGAGAACUUCUUCGGAUGCAGAGGAGCCAGGCUUCGGUGGCGCGAUAGCGCCAACGUCCUCAACCUCCAAUGCAUCCCACCACAUGAUGAGGCCUGAAGAGCCUUGGUUUUUUG [A5G A29U G48C U112G]	-4.65
GACCGAUCUGCCCUCAGAGCUCGAGAACAUCUUCGGGUGCAGAGGAGGCAGGUUUCGGUGGCGCGAUAGCGCCAACGUCCUCAACCUCCAAUGCAUCCCACCACGUGAUGAGGCCUGAAGAGCCGUGGUUUUUUU [A5G A37G C53U A105G U112G U125G G135U]	-5.89
GACCGAUCUGCCCUCAGAGCUCGAGAACAUCUUCGGAUGCCGAGGAGGCAGGCUUCGGUGGCGCGAUAGCGCCAACGUCCUCAACCUCCAAUGCAUCCCACCACAUGAUGAUGCCUGAAGAGCCUUGGUUUUUUG [A5G A41C]	-0.911

Variant	polymerase ribozyme fitness (log ratio)
GACCGAUCUGCCCUCAGAGCUCGAGAACAUCUUCGGAUGCGGAGGAGGCUGGCUUCGGUGGCGCGAUAGCGUCAUCGUCCUCAACCUCCAAUACAUCCCACCACAUGAUGAACCCUGAAGAGCCUUGGUUUUUUG [A5G A41G A50U C72U A75U G93A U112A G113C]	-3.59
GACCGAUCUGCCCUCAGAGCUCGAGAACAUCUUCGGAUGCAGCCGAGGCAGCCUUCGGUGGCGCGAUAGCGCUAACGUCCUCAACCUCCAAUGCAUCCCACCACAUGAAGAUGUAUGAAGAGCCUUGGUUUUUUG [A5G A43C G44C G52C C73U U109A C114U C115A]	-6.36
GACCGAUCUGCCCUCAGAGCUCGAGAACAUCUUCGGAUGCAGAGGUGGCAGGCUUUGGUGGCGCGAUAGCGCGAACGUCCUCAACCUCCAAUGCAUCCCACCACAUGAUGAUGCCUGAAGAAACUUGGUUUUUUG [A5G A46U C56U C73G G122A C123A]	-3
GACCGAUCUGCCCUCAGAGCUCGAGAACAUCUUCGGAUGCAGAGGAGGCAGGCUUCGGUGGCGCGAUAGCGCCAACGUCCUCAACCUCCACUGCAUCCCACCACAUGAUGAUGCCUGAAGAGCCUUGGUUUUUUG [A5G A91C]	-1.57
GACCGAUCUGCCCUCAGAGCUCGAGAACAUCUUCGGAUGCAGAGGAGGCAGGCUUCGGUGGCGCGAUAGCGCCAACGUCCUCAACCUCCAAUGCAUCCCACCACAUGAUGGUGCCUGAAGAUCCUUGGUUUUUUG [A5G A111G G122U]	-2.04
GACCGAUGUGCCCUCAGAGCUCGAGAACAUCUUCGGAUGCAGAGGAGGCAGGCUUCGGUGGCGCGAUAGCGCCAACGUCCUCAACCUCCAAUGCAUCCCACCACAUGAUGAUGCCUGAAGAGCCUUGGUUUUUUG [A5G C8G]	-0.847
GACCGAUUUGCCCUCAGAGCUCGAGAACAUCUUAGGAUGCAGAGGAGGCAGGCUUCGGUGGUGCGAUAGCGCCAACGUCCUCAACCUCCAAUGCAUCCCACCACAUGAUGAUGCCUAAAGAGCCUUGGUUUUUUG [A5G C8U C34A C62U G117A]	-5.35
GACCGAUCUGACCUCAGAGCUCGAGAACAUCUUCGGAUGCAGAGGAGGCAGGCUUCGGUGGCGCGAUAGGGCCAACGUCCCCAACCUCCAAUGCAUCCCACCACAUGAUGAUGCCUGAAGAGCCUUGGUUUUUUG [A5G C11A C70G U81C]	-4.45
GACCGAUCUGCACUCAGAGCUCGAGAACAUCUUCGGAUGCAGAGAAGGCAGGCUUCGGUGGCGCGAUAGCGCCAACGCCCUCAACCUACAAUGCAUCCCACCACAUGAUGAUGCCUGAAGAGCCUUGGUUUUUUG [A5G C12A G45A U78C C88A]	-0.938
GACCGAUCUGCACUCAGAGCUCGAGAACAUCUUCGGAAGCAGAGGAGGCAGGCUUCGGUAGCGCGAUAGCGCCAACGUCCUCAACCUCCAAUGCAUCCCACCACAUGAUGAUGCCUGAAGCGCCUUGGUUUUUUU [A5G C12A U38A G60A A121C G135U]	0.199
GACCGAUCUGCUCUCAGAGCUCGAGAACAUCUUCAGAUGCAGAGGAGGCAGGCUUCGGUGGCGCGAUAGCACCAACGACCUCAAGCUCCAAUGCAUCCCACCACAUGAUGAUGCCUGAAGAGCAUUGGUUUUUUG [A5G C12U G35A G71A U78A C85G C124A]	-5.49
GACCGAUCUGCCAUCAGAGCUCGAGAACAUCUUCGGAUGCAGAGGUGGCAGGCUUCGGUGGCACGAUAGCGCCAACGUCCUCAACCUCCAAUGCAUCCCACCACAUGAUGAUGCCUGAAGAGCCUUGGUUUUAUG [A5G C13A A46U G63A U133A]	-2.84
GACCGAUCUGCCAUCAGAGUUCGAGAACAUCUUCGGAUGCAGAGGAGGCAGGCUUCGGUGGCGCGAUAGCGCCAACGUCCUCAACCUCCAAUGCAUCCCACCACAUGAUGAUGCCUGAAGAGCCUUGGCUUUUUG [A5G C13A C20U U129C]	-4.45
GACCGAUCUGCCAUCAGAGCUCGAGAACAUCUUCGGAUGCAGAGGAGGCAGGUUUCGGGGGCGCGAUACCGCCAACGUCCUCAACCUCCAAUGCAUCCCACCACAUGAUGAUGCCUGAAGAGCCUUGGUUUUUUG [A5G C13A C53U U59G G69C]	-4.36
GACCGAUCUGCCAUCAGAGCUCGAGAACAUCUUCGGAUGCAGAGGAGCCAGGCUUCGGUGGCGCGAUAGCGCAAACGUCCUCAACCUCCAAUGCAUCCCACCACAUGAUGAAGCCUGAACAGCCUUGGUUUUUUG [A5G C13A G48C C73A U112A G120C]	-0.914
GACCGAUCUGCCUUCAGAGCUCGAGAACAUCUUCGGAUGCAGAGGAGGCAGGCUUCGGUGGCGCGAUAGCGCCAACGUCCUCAACCUCCAAUGCAUCUCACCACAUGAUGAUGCCUGAAGAGCCUUGUUUUUUUG [A5G C13U C98U G128U]	-3.14
GACCGAUCUGCCCUGAGAGCUCGAGAACAUCAUCGGAUGCAGAGGAGGCAGGCUUCGGUGGCUCGAUAGCGCCAACGUCCUCAACCUCCAAUGCAUCCCACCACAUGAUGACGCCUGAUGAGCCUUGGUUUUUUG [A5G C15G U32A G63U U112C A119U]	-5.37
GACCGAUCUGCCCUUAGAGCUCGAGAACAUCUUCGGAUGCAGAGGAGGUAGGCUUCGGUGGAGCGAUAGCGCCAACGUCCUCAACCUCCAAUGCAUCCCACCACAUGAUGAUGCCUGAAGAGACUUGGUUUUUUG [A5G C15U C49U C62A C123A]	-2.06
GACCGAUCUGCCCUCAGAGUUCGAGAACAUCUUCGGAGGCAGAGGAGGCAGGCUUCGGUGGCGCGAUAGCGCCAACGUCCUCAACCUCCAAUGCAUCCCACCACAUGAUUAUGCCUGAAGAGCCUUGGUUUUUUG [A5G C20U U38G G110U]	-4.64
GACCGAUCUGCCCUCAGAGCUCGAGAACAUCUUCGGAUGAAGAGGAGGCAGGCUUCGGUGGCGCGAUAGCGUCAACGUCCUCAACCUCCAAUGCAUCCCACCACAUGAUUAUGCCUGAAGAGCCUUGGUUUUUUG [A5G C40A C72U G110U]	-3.65
GACCGAUCUGCCCUCAGAGCUCGAGAACAUCUUCGGAUGAAGAGGAGGCAGGCUUCGGUGGCGCGAUAGCGCCAACGUCCUCAACCUCCAAUGCAUCCCACCACAUGAUGAUGCCUGAAUAGCCUUGGUUUUUUG [A5G C40A G120U]	-0.337
